Biological target: arnt_human ARNT (UniProt P27540)

effect of a mutation on the interaction: disrupting interaction strength
Substance: Endothelial PAS domain-containing protein 1 (Homo sapiens), Q99814 Q322E;M338E;Y342T
